# Experimental data from the supplement of paper PMC7125110.
# ± gives the standard error. This sample holds only a part of the variants without activity.
# B1: glmS ribozyme (parent)
# chain: AUAAAAGCGCCAGAACUACAGAAAUGUAGUUGACGAGGAGGAGGUUUAUCGAAUUUUCGGCGGAUGCCUCCAAA
# Tests used:
# Conditions in all cases: with glucosamine-6-phosphate
# [1] = variants of: B1; experiment: self-cleavage kobs at 40 uM GlcN6P; higher = faster cleavage; RNA array
# How it was run: (§1)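 A hybridised Cy3 probe tracked barcoded ribozyme variants, transcribed in situ by E. coli RNA polymerase on sequenced MiSeq chips, at 37 °C. The variants received 40 μM to 10 mM glucosamine-6-phosphate in HEPES/KCl/Mg(OAc)2 buffer. kobs came from decay fits and kcat and KM from weighted Michaelis–Menten fits.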
# [2] = variants of: B1; experiment: self-cleavage kobs at 160 uM GlcN6P; higher = faster cleavage; RNA array
# How it was run: as §1
# [3] = variants of: B1; experiment: self-cleavage kobs at 640 uM GlcN6P; higher = faster cleavage; RNA array
# How it was run: as §1
# [4] = variants of: B1; experiment: self-cleavage kobs at 2500 uM GlcN6P; higher = faster cleavage; RNA array
# How it was run: as §1
# [5] = variants of: B1; experiment: self-cleavage kobs at 10000 uM GlcN6P; higher = faster cleavage; RNA array
# How it was run: as §1
Variant,self-cleavage kobs at 40 uM GlcN6P [1] [s⁻¹],self-cleavage kobs at 160 uM GlcN6P [2] [s⁻¹],self-cleavage kobs at 640 uM GlcN6P [3] [s⁻¹],self-cleavage kobs at 2500 uM GlcN6P [4] [s⁻¹],self-cleavage kobs at 10000 uM GlcN6P [5] [s⁻¹]
A15G C70U,0.00115 ± 0.00011,0.00217 ± 0.00032,0.0045 ± 0.00057,0.0168 ± 0.0062,0.0598 ± 0.012
A6G G44U C61U,< 1e-05,< 1e-05,< 1e-05,< 1e-05,< 1e-05
A14G A48C C68A,< 1e-05,< 1e-05,,,< 1e-05
U31C G43C,< 1e-05,,< 1e-05,< 1e-05,< 1e-05
A33C C67U,< 1e-05,< 1e-05,< 1e-05,,
A33C U47C G59A,< 1e-05,,,,
C10G A52C U56A C71U,< 1e-05,,,,
G13A G35C G41U A53C U54A,< 1e-05,,,,
A6G C61G,< 1e-05,< 1e-05,< 1e-05,< 1e-05,< 1e-05
G38A G41U U46C,< 1e-05,,,,< 1e-05
A33G C34G G35U G38U,< 1e-05,,,,< 1e-05
C11U A15U U69G,6.47e-05 ± 2.5e-05,,,,
G7U U30G C61G G62U,< 1e-05,,,,
G13C A36G,< 1e-05,< 1e-05,,,< 1e-05
U31A G62C C70G,< 1e-05,,,,
A6G G44U C58U G63U,< 1e-05,,,< 1e-05,
G43A G62A,< 1e-05,< 1e-05,,< 1e-05,< 1e-05
G40C G62U,< 1e-05,< 1e-05,< 1e-05,< 1e-05,< 1e-05
G35U A64C,< 1e-05,< 1e-05,< 1e-05,< 1e-05,< 1e-05
G29U G32C C61G,< 1e-05,,,,< 1e-05
A12U G32C,< 1e-05,< 1e-05,,< 1e-05,
A15G C71U,0.00111 ± 0.0001,0.00193 ± 0.00039,0.00696 ± 0.0013,0.0534 ± 0.021,0.0519 ± 0.014
